In patent US20060019241A1, “Na+ and CI-coupled transport system for endogenous opioid peptides” (priority 2004, published 2006):
Ends that are not written are not given here.

Tests used:
[1] = tested on: deltorphin II transport system in Tat-ARPE-19 cells; experiment: Inhibition of [^3H]deltorphin II uptake in Tat-ARPE-19 cells; assay type: cell-based, human; details: [^3H]deltorphin II 50 nM; for competition with deltorphin for the uptake process (in words): Tat-ARPE-19 / RPE cells, compound 1 mM; for [^3H] Deltorphin II uptake / [^3H] Deltorphin II uptake (%) of control: Tat-ARPE-19 cells, 30 minutes, NaCl, inhibitor 1 mM; for [^3H] Deltorphin II uptake (%) of control: control = 100
Source text: Stable transfection of ARPE-19 cells with pcDNA-Tat cDNA. The pGEM2-Tat cDNA construct contained as the insert a 295 basepair (bp) fragment encoding the first exon of HIV-1 Tat gene joined to a 145 bp pET3A transcription terminator. The entire insert (440 bp) was removed from the construct by digestion with PstI and EcoRI and ligated into the multiple cloning region of pcDNA3.1 (−) vector at PstI/EcoRI site so that the insert is downstream of the cytomegalovirus (CMV) promoter. The resultant construct was sequenced to confirm the orientation of the insert. This construct was electroporated into ARPE-19 cells and the stably transfected cell clones were isolated in the presence of Geneticin (G418). To serve as a control, empty pcDNA3.1 vector was electroporated into ARPE-19 cells in an identical manner and the clones harboring the vector were selected by G418 resistance.
Uptake measurements in control ARPE-19 cells and Tat-ARPE-19 cells. Control ARPE-19 cells and Tat-ARPE-19 cells were maintained in 75-cm^2 culture flasks in Dulbecco's modified Eagle's medium/F12 medium (1:1, volume/volume (v/v)) in the presence of fetal bovine serum (10%) and G418 (100 μg/ml). For uptake measurements, cells were released by trypsin treatment and seeded in 24-well culture plates at an initial density of 0.1×10^6 cells/well. The culture medium was replaced with fresh medium on the second day following the initial seeding and uptake measurements were made on the third day. […] After incubation at 37° C. for a desired time, uptake was terminated by the removal of the medium and washing of the cells with ice-cold uptake buffer. The cells were then dissolved in 1% SDS in 0.2 M NaOH and used for measurement of radioactivity. The uptake buffer in most experiments was 25 mM Hepes/Tris (pH 7.5), containing 140 mM NaCl, 5.4 mM KCl, 1.8 mM CaCl2, 0.8 mM MgSO4 and 5 mM glucose.
When the influence of Na^+ on the uptake process was investigated, the concentration of NaCl in the uptake buffer was adjusted, as desired, by isoosmotically replacing NaCl with N-methyl-D-glucamine chloride. To assess the influence of Cl^− on the uptake process, the composition of the uptake medium was modified by replacing KCl and CaCl2 with equimolar concentrations of potassium gluconate and calcium gluconate and the concentration of NaCl was adjusted, as desired, by iso-osmotically replacing NaCl with sodium gluconate. Saturation kinetics were analysed by fitting the data to the Michaelis-Menten equation. The Michaelis-Menten constant, Kt, was calculated by non-linear regression analysis and then confirmed by linear regression. Na^+- and Cl^−-activation kinetics were analyzed by fitting the data to the Hill equation and the Hill coefficients for Na^+ and Cl^− (h; the number of Na^+ and Cl^− ions involved in the activation process) and the K0.5 values (the concentration of Na^+ and Cl^−-needed for half-maximal activation) were determined from the analysis. Again, these constants were first calculated by non-linear regression methods and subsequently confirmed by linear regression methods. Experiments were repeated three times in duplicate and the results are given as means±S.E.M.
Substrate specificity of the deltorphin transport system. […] These peptides consisted of 4-13 amino acids.
Relative affinities of endogenous opioid peptides for the transport system.

[2] = molecular target: Na+- and Cl--coupled transport system for endogenous opioid peptides (human cell lines ARPE-19, Tat-ARPE-19 and SK-N-SH) (human); experiment: cell-based or functional assay

Q: How did the “competition with deltorphin for the uptake process (in words)” value (from here on “competition with deltorphin”) [1] turn out when “Tyr-Gly-Gly-Phe-Met-NH2 (YGGFM; printed: Tyr-Gly-Gly-Phe-Met-) [Met-enkephalinamide]” was run?
A: The value was “marked inhibition”.

Q: What about the “[^3H] Deltorphin II uptake” value [1] of the same compound?
A: The value was 0.69 ± 0.01 pmol/mg protein/30 min.

Q: What about the “[^3H] Deltorphin II uptake (%) of control” value [1] of the same compound?
A: The value was 9%.

Q: For “Tyr-Gly-Gly-Phe (YGGF; printed: Tyr-Gly-Gly-Phe) [β-Lipotropin]”, which “competition with deltorphin” value [1] is on record?
A: The value was “no or little inhibition”.

Q: And the “[^3H] Deltorphin II uptake” value [1]?
A: Its value is 6.26 ± 0.31 pmol/mg protein/30 min.

Q: What about the “[^3H] Deltorphin II uptake (%) of control” value [1] of the same compound?
A: Its value is 81%.

Q: “[des-Tyr1]Met-enkephalin (Gly-Gly-Phe-Met) (peptide)” was tested. Which IC50 for inhibition of [3H]deltorphin II uptake in Tat-ARPE-19 cells [2] did it give?
A: The IC50 for inhibition of [3H]deltorphin II uptake in Tat-ARPE-19 cells was 31.9 mM.

Q: And the [3H]deltorphin II (50 nM) uptake in Tat-ARPE-19 cells, 30 min, NaCl, inhibitor 1 mM (pmol/mg protein/30 min) [2]?
A: Its [3H]deltorphin II (50 nM) uptake in Tat-ARPE-19 cells, 30 min, NaCl, inhibitor 1 mM (pmol/mg protein/30 min) is 0.74.

Q: And the [3H]deltorphin II uptake (%) in Tat-ARPE-19 cells, inhibitor 1 mM [2]?
A: Its [3H]deltorphin II uptake (%) in Tat-ARPE-19 cells, inhibitor 1 mM is 10 % of control.

Q: Which results are given for “β-Lipotropin (Tyr-Gly-Gly-Phe) (peptide)”?
A: [3H]deltorphin II (50 nM) uptake in Tat-ARPE-19 cells, 30 min, NaCl, inhibitor 1 mM (pmol/mg protein/30 min) [2]: 6.26; [3H]deltorphin II uptake (%) in Tat-ARPE-19 cells, inhibitor 1 mM [2]: 81 % of control

Q: Which results are given for `N[C@@H](Cc1ccc(O)cc1)C(=O)O` [L-Tyrosine]?
A: competition with deltorphin for the uptake process (in words) [1]: did not compete; [^3H] Deltorphin II uptake [1]: 7.52 ± 0.15 pmol/mg protein/30 min; [^3H] Deltorphin II uptake (%) of control [1]: 97%

Q: What does the source list for Carnosine (β-Ala-His) (peptide)?
A: [3H]deltorphin II (50 nM) uptake in Tat-ARPE-19 cells, 30 min, NaCl, inhibitor 1 mM (pmol/mg protein/30 min) [2]: 6.21; [3H]deltorphin II uptake (%) in Tat-ARPE-19 cells, inhibitor 1 mM [2]: 80 % of control

Q: “α-Neo-endorphin (1-6) (Tyr-Gly-Gly-Phe-Met-Lys) (peptide)” was tested. Which [3H]deltorphin II (50 nM) uptake in Tat-ARPE-19 cells, 30 min, NaCl, inhibitor 1 mM (pmol/mg protein/30 min) [2] did it give?
A: Its [3H]deltorphin II (50 nM) uptake in Tat-ARPE-19 cells, 30 min, NaCl, inhibitor 1 mM (pmol/mg protein/30 min) is 0.19.

Q: And the [3H]deltorphin II uptake (%) in Tat-ARPE-19 cells, inhibitor 1 mM [2]?
A: Its [3H]deltorphin II uptake (%) in Tat-ARPE-19 cells, inhibitor 1 mM is 3 % of control.

Q: What does the source list for Tyr-Pro (peptide)?
A: [3H]deltorphin II (50 nM) uptake in Tat-ARPE-19 cells, 30 min, NaCl, inhibitor 1 mM (pmol/mg protein/30 min) [2]: 5.72; [3H]deltorphin II uptake (%) in Tat-ARPE-19 cells, inhibitor 1 mM [2]: 74 % of control

Q: With “Gly-Gly-Phe-Met [[des-Tyr^1] Met-enkephalin]” as the compound, how does the “competition with deltorphin” value [1] read?
A: Its value is “marked inhibition”.

Q: And the “[^3H] Deltorphin II uptake” value [1]?
A: Its value is 0.74 ± 0.03 pmol/mg protein/30 min.

Q: What about the “[^3H] Deltorphin II uptake (%) of control” value [1] of the same compound?
A: Its value is 10%.

Q: For “Dynorphin A (1-7) (Tyr-Gly-Gly-Phe-Leu-Arg-Arg) (peptide)”, which IC50 for inhibition of [3H]deltorphin II uptake in Tat-ARPE-19 cells [2] is on record?
A: Its IC50 for inhibition of [3H]deltorphin II uptake in Tat-ARPE-19 cells is 7.3 mM.

Q: And the [3H]deltorphin II (50 nM) uptake in Tat-ARPE-19 cells, 30 min, NaCl, inhibitor 1 mM (pmol/mg protein/30 min) [2]?
A: Its [3H]deltorphin II (50 nM) uptake in Tat-ARPE-19 cells, 30 min, NaCl, inhibitor 1 mM (pmol/mg protein/30 min) is 0.1.

Q: And the [3H]deltorphin II (50 nM) uptake in control ARPE-19 cells, 30 min, NaCl, opioid peptide 1 mM (pmol/mg protein/30 min) [2]?
A: The [3H]deltorphin II (50 nM) uptake in control ARPE-19 cells, 30 min, NaCl, opioid peptide 1 mM (pmol/mg protein/30 min) was 0.05.

Q: What about the [3H]deltorphin II uptake (%) in Tat-ARPE-19 cells, inhibitor 1 mM [2] of the same compound?
A: The [3H]deltorphin II uptake (%) in Tat-ARPE-19 cells, inhibitor 1 mM was 1 % of control.

Q: What about the [3H]deltorphin II uptake (%) in control ARPE-19 cells, opioid peptide 1 mM [2] of the same compound?
A: Its [3H]deltorphin II uptake (%) in control ARPE-19 cells, opioid peptide 1 mM is 5 % of control.

Q: And the affinity from concentration-dependent inhibition of [3H]deltorphin II (25 nM) uptake in SK-N-SH cells [2]?
A: The affinity from concentration-dependent inhibition of [3H]deltorphin II (25 nM) uptake in SK-N-SH cells was 4.6 µM.

Q: Which results are given for `NCC(=O)O` [Glycine]?
A: competition with deltorphin for the uptake process (in words) [1]: did not compete; [^3H] Deltorphin II uptake [1]: 7.23 ± 0.14 pmol/mg protein/30 min; [^3H] Deltorphin II uptake (%) of control [1]: 93%

Q: With YPFPGPI [β-Casomorphin] as the compound, how does the “[^3H] Deltorphin II uptake” value [1] read?
A: Its value is 2.03 ± 0.05 pmol/mg protein/30 min.

Q: And the “[^3H] Deltorphin II uptake (%) of control” value [1]?
A: The value was 26%.

Q: For Gly-Gly-Ile (peptide), which stimulation of deltorphin II uptake in SK-N-SH cells [2] is on record?
A: The stimulation of deltorphin II uptake in SK-N-SH cells was 6 to 8 fold.

Q: What does the source list for “[Arg6, Gly7, Leu8]Met-enkephalin (Tyr-Gly-Gly-Phe-Met-Arg-Gly-Leu) (peptide)”?
A: IC50 for inhibition of [3H]deltorphin II uptake in Tat-ARPE-19 cells [2]: 2.5 mM; [3H]deltorphin II (50 nM) uptake in Tat-ARPE-19 cells, 30 min, NaCl, inhibitor 1 mM (pmol/mg protein/30 min) [2]: 0.09; [3H]deltorphin II (50 nM) uptake in control ARPE-19 cells, 30 min, NaCl, opioid peptide 1 mM (pmol/mg protein/30 min) [2]: 0.04; [3H]deltorphin II uptake (%) in Tat-ARPE-19 cells, inhibitor 1 mM [2]: 1 % of control; [3H]deltorphin II uptake (%) in control ARPE-19 cells, opioid peptide 1 mM [2]: 4 % of control
